Assay results as given in the Human Domainome abundance scans (Beltran et al. 2025).
± gives the uncertainty stated by the source.

experiment: abundance fitness (aPCA) (normalised: wild type 0, dead -1); higher = more abundant; growth selection in yeast, the domain comes from the species named; details: Homo sapiens

Substance	abundance fitness
E3 ubiquitin-protein ligase NEDD4-like V212D, Q96PU5	-0.458 ± 0.094
E3 ubiquitin-protein ligase NEDD4-like V212E, Q96PU5	-0.068 ± 0.057
E3 ubiquitin-protein ligase NEDD4-like V212G, Q96PU5	-0.417 ± 0.053
E3 ubiquitin-protein ligase NEDD4-like V212H, Q96PU5	-0.207 ± 0.12
E3 ubiquitin-protein ligase NEDD4-like V212I, Q96PU5	-0.356 ± 0.12
E3 ubiquitin-protein ligase NEDD4-like V212K, Q96PU5	-0.974 ± 0.18
E3 ubiquitin-protein ligase NEDD4-like V212M, Q96PU5	-0.076 ± 0.076
E3 ubiquitin-protein ligase NEDD4-like V212N, Q96PU5	-0.47 ± 0.15
E3 ubiquitin-protein ligase NEDD4-like V212P, Q96PU5	-0.485 ± 0.11
E3 ubiquitin-protein ligase NEDD4-like V212R, Q96PU5	-0.196 ± 0.057
E3 ubiquitin-protein ligase NEDD4-like V212S, Q96PU5	-0.347 ± 0.071
E3 ubiquitin-protein ligase NEDD4-like V212T, Q96PU5	-0.225 ± 0.094
E3 ubiquitin-protein ligase NEDD4-like V212W, Q96PU5	-0.183 ± 0.083
E3 ubiquitin-protein ligase NEDD4-like V212Y, Q96PU5	-0.003 ± 0.15
E3 ubiquitin-protein ligase NEDD4-like V229A, Q96PU5	-0.001 ± 0.064
E3 ubiquitin-protein ligase NEDD4-like V229C, Q96PU5	-0.203 ± 0.084
E3 ubiquitin-protein ligase NEDD4-like V229D, Q96PU5	0.019 ± 0.068
E3 ubiquitin-protein ligase NEDD4-like V229E, Q96PU5	0.003 ± 0.077
E3 ubiquitin-protein ligase NEDD4-like V229F, Q96PU5	-0.057 ± 0.099
E3 ubiquitin-protein ligase NEDD4-like V229G, Q96PU5	0.036 ± 0.057
E3 ubiquitin-protein ligase NEDD4-like V229H, Q96PU5	-0.263 ± 0.1
E3 ubiquitin-protein ligase NEDD4-like V229I, Q96PU5	-0.013 ± 0.099
E3 ubiquitin-protein ligase NEDD4-like V229K, Q96PU5	-0.111 ± 0.095

Substance	abundance fitness
E3 ubiquitin-protein ligase NEDD4-like V229L, Q96PU5	0.057 ± 0.056
E3 ubiquitin-protein ligase NEDD4-like V229N, Q96PU5	-0.007 ± 0.11
E3 ubiquitin-protein ligase NEDD4-like V229Q, Q96PU5	-0.133 ± 0.1
E3 ubiquitin-protein ligase NEDD4-like V229R, Q96PU5	-0.016 ± 0.061
E3 ubiquitin-protein ligase NEDD4-like V229S, Q96PU5	0.033 ± 0.067
E3 ubiquitin-protein ligase NEDD4-like V229T, Q96PU5	0.018 ± 0.065
E3 ubiquitin-protein ligase NEDD4-like V229W, Q96PU5	-0.164 ± 0.06
E3 ubiquitin-protein ligase NEDD4-like W199A, Q96PU5	-0.535 ± 0.086
E3 ubiquitin-protein ligase NEDD4-like W199C, Q96PU5	-0.25 ± 0.098
E3 ubiquitin-protein ligase NEDD4-like W199D, Q96PU5	-0.744 ± 0.1
E3 ubiquitin-protein ligase NEDD4-like W199E, Q96PU5	-0.275 ± 0.083
E3 ubiquitin-protein ligase NEDD4-like W199F, Q96PU5	0.004 ± 0.079
E3 ubiquitin-protein ligase NEDD4-like W199G, Q96PU5	-0.413 ± 0.063
E3 ubiquitin-protein ligase NEDD4-like W199I, Q96PU5	-0.462 ± 0.13
E3 ubiquitin-protein ligase NEDD4-like W199L, Q96PU5	-0.502 ± 0.058
E3 ubiquitin-protein ligase NEDD4-like W199M, Q96PU5	-0.514 ± 0.089
E3 ubiquitin-protein ligase NEDD4-like W199N, Q96PU5	-0.853 ± 0.19
E3 ubiquitin-protein ligase NEDD4-like W199P, Q96PU5	-1.03 ± 0.13
E3 ubiquitin-protein ligase NEDD4-like W199Q, Q96PU5	-0.586 ± 0.098
E3 ubiquitin-protein ligase NEDD4-like W199R, Q96PU5	-0.536 ± 0.065
E3 ubiquitin-protein ligase NEDD4-like W199S, Q96PU5	-0.454 ± 0.067
E3 ubiquitin-protein ligase NEDD4-like W199T, Q96PU5	-0.176 ± 0.09
E3 ubiquitin-protein ligase NEDD4-like W199V, Q96PU5	-0.287 ± 0.07

Substance	abundance fitness
E3 ubiquitin-protein ligase NEDD4-like W199Y, Q96PU5	-0.403 ± 0.14
E3 ubiquitin-protein ligase NEDD4-like W221A, Q96PU5	-0.035 ± 0.077
E3 ubiquitin-protein ligase NEDD4-like W221C, Q96PU5	-0.051 ± 0.079
E3 ubiquitin-protein ligase NEDD4-like W221D, Q96PU5	-0.029 ± 0.1
E3 ubiquitin-protein ligase NEDD4-like W221E, Q96PU5	-0.106 ± 0.085
E3 ubiquitin-protein ligase NEDD4-like W221F, Q96PU5	-0.04 ± 0.084
E3 ubiquitin-protein ligase NEDD4-like W221G, Q96PU5	-0.219 ± 0.063
E3 ubiquitin-protein ligase NEDD4-like W221H, Q96PU5	-0.243 ± 0.1
E3 ubiquitin-protein ligase NEDD4-like W221I, Q96PU5	-0.192 ± 0.12
E3 ubiquitin-protein ligase NEDD4-like W221K, Q96PU5	-0.044 ± 0.1
E3 ubiquitin-protein ligase NEDD4-like W221L, Q96PU5	-0.031 ± 0.054
E3 ubiquitin-protein ligase NEDD4-like W221N, Q96PU5	-0.402 ± 0.11
E3 ubiquitin-protein ligase NEDD4-like W221Q, Q96PU5	0.196 ± 0.1
E3 ubiquitin-protein ligase NEDD4-like W221R, Q96PU5	-0.052 ± 0.058
E3 ubiquitin-protein ligase NEDD4-like W221S, Q96PU5	0.124 ± 0.063
E3 ubiquitin-protein ligase NEDD4-like W221T, Q96PU5	-0.035 ± 0.063
E3 ubiquitin-protein ligase NEDD4-like W221V, Q96PU5	-0.123 ± 0.066
E3 ubiquitin-protein ligase NEDD4-like W221Y, Q96PU5	0.193 ± 0.12
E3 ubiquitin-protein ligase NEDD4-like Y210A, Q96PU5	-0.379 ± 0.067
E3 ubiquitin-protein ligase NEDD4-like Y210C, Q96PU5	-0.386 ± 0.1
E3 ubiquitin-protein ligase NEDD4-like Y210E, Q96PU5	-0.516 ± 0.082
E3 ubiquitin-protein ligase NEDD4-like Y210F, Q96PU5	-0.255 ± 0.1
